Substitutions are numbered along the chain they refer to.
B1: MD67 (scFv, V domains shown)
VH: EVQLVESGGGLVQPGGSLRLSCAASGFTVSSNYMTWVRQAPGKGLEWVSVIYSGGSTFYADSVKGRFTISRHNSKNTLYLQMNSLRAEDTAVYYCARDLSVRGGMDVWGQGTTVTVSS
VL: not shown
B2: MD29 (scFv, V domains shown)
VH: QMQLVQSGGGLVQPGGSLRLSCSASGFTFSTYVMNWVRQAPGKGPEHVSGISSDGGITYYADSVKGRFTISRDNSKNTLYLQMSSLRVEDTAVYYCVKDQDSSSWYDAFDIWGQGTMVTVSS
VL: NIRLTQSPSSLSASVGDRVTITCRATQSISSYLNWYQQKPGKAPNLLIYAASSLQSGVPSRFSGSGSGTDFTLTISSLQPEDFATYYCHQTYTSPYTFGQGTKLEIK
B3: MD45 (scFv, V domains shown)
VH: B1 VH with E6Q, T113M
VL: EIVLTQSPGTLSLSPGERATLSCRASQSVNSSYLAWYQQKPGQAPRLLIYGASNRATGIPDRFSGSGSGTDFTLTISRLEPEDFAVYYCQQYGVSPEIIFGQGTRLEIK
B4: MD62 (scFv, V domains shown)
VH: EVQLVQSGGGLIQPGGSLRLSCAASGVTVSSNYMTWVRQAPGKGLEWVSLIYSGGSTYYADSVKGRFTISRDNSKNTLYLQMNSLRAEDTAVYYCARDLQYYGMDVWGQGTMVTVSS
VL: AIRMTQSPSSVSASVGDRVTITCRASQDIGSWLGWYQQKPGKAPKLLIYAASSLAGGVPSRFSGSGSGTDFTLTISSLQPEDFATYYCQQANSFPLTFGGGTKLEIK
B5: MD17 (scFv, V domains shown)
VH: B2 VH with Q1E, M2V, V5L, Q6E, P45L
VL: DIVMTQSPSSLSASVGDRVTITCRASQSISNYLNWYQQKLGKAPKLLTYAASRLQSGVPSRFSASGSGTEFTLTISSLQPEDFATYYCQQSYTTPLTFGGGTKLEIK
B6: MD47 (scFv, V domains shown)
V domain 1: QMQLVQSGGGLVQPGGSLRLSCAASGFTFSSYAMSWVRQAPGKGLEWVSAISSGGSTYYADSVKGRFTISRDNSKNTLYLQMNSLRAEDTAVYYCAKDLVTAPSYEAFDIWGQGTMITVSS
V domain 2: NFMLTQPPSVSVAPGKTARITCGGNNIGSKSVHWYQQKPGQAPVLVIYYDSDRPSGIPERFSGSNSGNTATLTISRVEAGDEADYYCQVWDSSSHHHVVFGGGTKGTVL
B7: MD63 (scFv, V domains shown)
VH: QVTLKESGGGVVQPGRSLRLSCAASGFTFSSYAMHWVRQAPGKGLEHVSAISSDGGITYFADSVKGRFTISRDNSRNTLFLQMSSLRVEDTAVYYCVKDQDSNSWYDAFDIWGRGTMVTVSS
VL: not shown

The binders below were run against T1, SARS-CoV-2 spike receptor binding domain (RBD) (SARS-CoV-2 Wuhan-Hu-1 (QHD43416), UniProt P0DTC2) (assay: BLI).
With B1 the Kd was 0.4 to 5.8 nM.
B2 showed a Kd of 0.4 to 5.8 nM.

Each binder was assayed against SARS-CoV-2 spike N terminal domain (NTD) (SARS-CoV-2 Wuhan-Hu-1 (QHD43416), UniProt P0DTC2) (assay: ELISA).
B3: no binding.
B1: no binding.
B4: no binding.
B5: no binding.
B2: no binding.
B6: no binding.
B7: no binding.

The binders below were run against SARS-CoV-2 spike S1 subunit (SARS-CoV-2 Wuhan-Hu-1 (QHD43416), UniProt P0DTC2) (assay: ELISA).
Work on B3 yielded a Kd of 12.7 nM.
In the case of B7, the Kd is reported as 15.6 nM.

What follows are binders tested against T1, SARS-CoV-2 spike receptor binding … (assay: cell-based or functional assay).
For B3, the “NT50, plaque reduction neutralization test (PRNT), SARS-CoV-2 on Vero E6 cells” value was 2.1 µg/mL.
In the case of B1, the “NT50, plaque reduction neutralization test (PRNT), SARS-CoV-2 on Vero E6 cells” value is reported as 1.9 µg/mL.
With B4 the “NT50, plaque reduction neutralization test (PRNT), SARS-CoV-2 on Vero E6 cells” value was 1.6 µg/mL.
With B5 the “NT50, plaque reduction neutralization test (PRNT), SARS-CoV-2 on Vero E6 cells” value was 43 µg/mL.
For B2, the “NT50, plaque reduction neutralization test (PRNT), SARS-CoV-2 on Vero E6 cells” value was 13 µg/mL.
With B6 the “NT50, plaque reduction neutralization test (PRNT), SARS-CoV-2 on Vero E6 cells” value was 13 µg/mL.

— publication doi:10.1101/2020.05.20.106609 (bioRxiv, 2020)
